The values that follow come from publication PMC10229621.

The target of this test is T4 capsid (empty HocΔSocΔ head from the 10-amber.13-amber.HocΔ.SocΔ T4 mutant) (bacteriophage T4) (UniProt P19896). As to the kind of experiment: co-sedimentation.

Cpf1-Soc: the stoichiometry N (molecules per capsid) came out at 450.
In turn, Cre-Hoc returned a stoichiometry N (molecules per capsid) of 95.
Still for that read-out and setting: with Cre-Soc the figure was 630.
The same measure, in the same setting: next, GFP-Soc: 660; NLS-Cas9-Soc: 550.
On the same count and under the same terms, next, RGD-Hoc: 85.
As to Soc-RGD, the stoichiometry N (molecules per capsid) amounted to 710.
Soc-TAT registered a stoichiometry N (copies per capsid) of 520 and a stoichiometry N (molecules per capsid) of 750.
On to β-Gal-Soc, for which the stoichiometry N (molecules per capsid) was determined as 320.
